Source: patent publication US20070066551, “Aptamer medicinal chemistry” (published 2007)

Tests used:
Conditions in all cases: label: 5'-32P
[1] = target: T1, von Willebrand Factor (vWF) (UniProt P04275 P04275:764-2813); experiment: filter; DPBS with Ca/Mg, 0.1 mg/mL BSA, 24 C
[2] = target: T2, IL-23 (full length) (Homo sapiens, UniProt Q9NPF7;P29460 Q9NPF7:20-189,P29460:23-328); experiment: filter; PBS without Ca/Mg, 0.1 mg/mL BSA, RT 30 min; 13 nM in DPBS with Ca/Mg (Table 5)
Excerpt: (§1) A three-layer filtration medium was used, consisting (from bottom to top) of Protran nitrocellulose (Schleicher & Schuell), Hybond-P nylon (Amersham Biosciences) and GB002 gel blot paper (Schleicher & Schuell). RNA that is bound to protein is captured on the nitrocellulose filter, whereas the non-protein bound RNA is captured on the nylon filter. The gel blot paper was included simply as a supporting medium for the other filters. Following filtration, the filter layers were separated, dried and exposed on a phosphor screen (Amersham Biosciences, Piscataway, N.J.) and quantified using a Storm 860 Phosphorimager® blot imaging system (Amersham Biosciences).
A set of ARC979 (SEQ ID NO 1) derivative aptamers introducing single phosphorothioate substitutions (Glen Research, Sterling, Va.) were chemically synthesized by standard synthesis techniques. In each set of derivatives, single phosphorothioate substitutions were systematically introduced at each internucleotide linkage position resulting in each derivative within one set having an aptamer with a phosphorothioate substitution at a different internucleotide position. These derivatives were gel purified and assayed for IL-23 binding, using the dot blot assay described above under the following binding reaction conditions: 1×PBS (without Ca⁺⁺ or Mg⁺⁺) plus 0.1 mg/mL BSA, for a 30 minute incubation at room temperature. […]

[3] = target: T2, IL-23 (full length); experiment: filter; DPBS with Ca/Mg, BSA, RT; parent 3.7 nM
Excerpt: as §1
The dot blot binding assay previously described was used to characterize the relative potency of the majority of the aptamers synthesized as compared to the parent molecule, ARC1386. […] KD values were calculated by fitting the equation y=(max/(1+K/protein))+yint using KaleidaGraph (KaleidaGraph v. 3.51, Synergy Software).

[4] = target: T1, von Willebrand Factor (vWF); experiment: filter; DPBS with Ca/Mg, 0.1 mg/mL BSA, 24 C; remark: listed apart in the source
Excerpt: as §1
A set of ARC1172 (SEQ ID NO 3) derivative aptamers introducing single phosphorothioate substitutions (Glen Research, Sterling, Va.) were chemically synthesized using standard synthesis techniques. In each set of derivatives, single phosphorothioate substitutions were systematically introduced at each internucleotide linkage position resulting in each derivative set having an aptamer with a phosphorothioate substitution at a different internucleotide position. […] KD values for the ARC1172 derivative aptamers were calculated by fitting the equation y=(max/(1+K/protein))+yint using KaleidaGraph (KaleidaGraph v. 3.51, Synergy Software).

T2 sequence (Q9NPF7 20-189, chain 1 of 2): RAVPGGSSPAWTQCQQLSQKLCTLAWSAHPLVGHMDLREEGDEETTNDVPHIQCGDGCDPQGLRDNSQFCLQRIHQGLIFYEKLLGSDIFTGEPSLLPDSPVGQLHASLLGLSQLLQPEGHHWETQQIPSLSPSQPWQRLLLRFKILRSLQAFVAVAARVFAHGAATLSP
T2 sequence (P29460 23-328, chain 2 of 2): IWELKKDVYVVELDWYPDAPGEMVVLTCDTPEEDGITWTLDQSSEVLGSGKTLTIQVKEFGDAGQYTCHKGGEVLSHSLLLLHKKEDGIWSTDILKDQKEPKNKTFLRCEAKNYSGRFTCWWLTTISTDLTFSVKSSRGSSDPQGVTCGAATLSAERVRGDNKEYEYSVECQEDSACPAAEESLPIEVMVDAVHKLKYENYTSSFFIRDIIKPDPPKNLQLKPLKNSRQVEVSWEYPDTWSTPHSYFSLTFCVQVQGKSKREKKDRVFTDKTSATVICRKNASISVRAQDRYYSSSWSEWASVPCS

## GCGUGCAGUGCCUUCGGCCGTGCGGTGCCUCCGUCACGC (mixed, multiple 2'-OMe substitutions as in Table 3; 3'-idT (last t of SEQ)) [ARC1361]
[1]
  Kd: 7.9 nM

B1: ARC1368 (mixed)
mixed: GCGUGCAGUGCCUUCGGCCGTGCGGTGCCUCCGUCACGC
modifications: as ARC1361 plus PS between 20 and 21 (as printed, mG-s-T); 3'-idT (last t of SEQ)
[1]
  Kd: 1.8 nM

## ACAGGCAAGUAAUUGGGGAGUGCGGGCGGGGUGU (mixed, 2'-deoxy purines, 2'-OMe pyrimidines (dRmY)) [ARC979]
[2]
  Kd: 90 nM

## ACAGGCAAGUAAUUGGGGAGUGCGGGCGGGGTGU (mixed, dRmY; 2'-deoxy dihydrouridine at 32; 3'-idT (last t of SEQ)) [ARC1713]
[3]
  Kd: 2.2 nM

## ACAGGCAAGTAAUUGGGGAGUGCGGGCGGGGUGU (mixed, dRmY; 2'-deoxy dihydrouridine at 10; 3'-idT (last t of SEQ)) [ARC1709]
[3]
  Kd: 2.8 nM

## GGCGTGCAGTGCCTTCGGCCGTGCGGTGCCTCCGTCACGCC (ssDNA, 3'-idT (last t of SEQ)) [ARC1172 w/3T]
[4]
  Kd: 2 nM

## GGCGTGCAGTGCCTTCGGCCGTGCGGTGCCTCCGTCACGCC (ssDNA, 3'-idT as printed in Table 3) [ARC1172]
[1]
  Kd: 2 nM
